The supplement of paper PMC9112550, “Optimization of the antimicrobial peptide Bac7 by deep mutational scanning” (BMC Biology, 2022)

Tested on: Escherichia coli TOP10
Experiment: shrunken log2 fold change of peptide-encoding DNA abundance (4.5 h post-induction vs induction); higher = less antimicrobial activity (less host growth inhibition)
Conditions: time post-induction: 4.5 h; library: site-saturation at positions 5, 18, 19, 20
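Also: peptides expressed intracellularly from a pBAD plasmid library in pooled LB shake-flask culture, induced with 0.3% L-arabinose, DNA abundance read by NGS, three biological replicates, DESeq2 with apeglm shrinkage.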

Sequence	shrunken log2 fold change
RRIRCRPPRLPRPRPRPHKWPRP	-0.174
RRIRGRPPRLPRPRPRPFIGPRP	-0.258
RRIRVRPPRLPRPRPRPHYIPRP	-0.589
RRIRCRPPRLPRPRPRPDAPPRP	0.515
RRIRKRPPRLPRPRPRPTNPPRP	0.155
RRIRIRPPRLPRPRPRPPWTPRP	0.0205
RRIRNRPPRLPRPRPRPPTYPRP	-0.217
RRIRNRPPRLPRPRPRPCGHPRP	0.0743
RRIRPRPPRLPRPRPRPYDSPRP	-0.977
RRIRCRPPRLPRPRPRPRQLPRP	0.0916
RRIRVRPPRLPRPRPRPHAAPRP	0.156
RRIRLRPPRLPRPRPRPYNSPRP	-0.514
RRIRTRPPRLPRPRPRPAWHPRP	0.282
RRIRQRPPRLPRPRPRPVRVPRP	0.686
RRIRSRPPRLPRPRPRPMRCPRP	0.361
RRIRGRPPRLPRPRPRPNFPPRP	0.193
RRIRHRPPRLPRPRPRPESEPRP	-0.00193
RRIRNRPPRLPRPRPRPRVDPRP	0.0415
RRIRARPPRLPRPRPRPSNKPRP	-0.31
RRIRERPPRLPRPRPRPISDPRP	0.00346
RRIRWRPPRLPRPRPRPNDFPRP	-0.0161
RRIRDRPPRLPRPRPRPIYYPRP	-0.253
RRIRKRPPRLPRPRPRPMPDPRP	0.525
RRIRWRPPRLPRPRPRPWEEPRP	0.0688
RRIRTRPPRLPRPRPRPFIYPRP	-0.657

Sequence	shrunken log2 fold change
RRIRWRPPRLPRPRPRPHLGPRP	0.14
RRIRHRPPRLPRPRPRPAAVPRP	0.0752
RRIRIRPPRLPRPRPRPFGFPRP	-0.694
RRIRNRPPRLPRPRPRPEPIPRP	0.0458
RRIRSRPPRLPRPRPRPWMDPRP	-0.0373
RRIRCRPPRLPRPRPRPVNCPRP	-0.0215
RRIRYRPPRLPRPRPRPACQPRP	-0.142
RRIRIRPPRLPRPRPRPWISPRP	-0.0286
RRIRARPPRLPRPRPRPHFIPRP	0.179
RRIRQRPPRLPRPRPRPWKFPRP	0.0543
RRIRHRPPRLPRPRPRPGPTPRP	0.146
RRIRCRPPRLPRPRPRPSCQPRP	-0.375
RRIRKRPPRLPRPRPRPQHFPRP	0.0698
RRIRNRPPRLPRPRPRPGSCPRP	-0.247
RRIRWRPPRLPRPRPRPWGVPRP	0.132
RRIRFRPPRLPRPRPRPTYVPRP	-0.137
RRIRDRPPRLPRPRPRPTIVPRP	0.0194
RRIRGRPPRLPRPRPRPVWNPRP	0.0596
RRIRARPPRLPRPRPRPEFWPRP	1.12
RRIRKRPPRLPRPRPRPFVNPRP	-0.122
RRIRSRPPRLPRPRPRPGSLPRP	-0.0216
RRIRIRPPRLPRPRPRPGLTPRP	-0.0421
RRIRFRPPRLPRPRPRPYAEPRP	-0.823
RRIRQRPPRLPRPRPRPLRMPRP	0.483
RRIRIRPPRLPRPRPRPCPKPRP	-0.564

Sequence	shrunken log2 fold change
RRIRVRPPRLPRPRPRPYAMPRP	-0.11
RRIRFRPPRLPRPRPRPTGMPRP	0.00753
RRIRCRPPRLPRPRPRPYGSPRP	-0.517
RRIRWRPPRLPRPRPRPSGWPRP	0.422
RRIRERPPRLPRPRPRPRSQPRP	-0.341
RRIRRRPPRLPRPRPRPSAGPRP	0.392
RRIRNRPPRLPRPRPRPDLRPRP	-0.105
RRIRYRPPRLPRPRPRPLTLPRP	-0.267
RRIRGRPPRLPRPRPRPHFVPRP	0.466
RRIRPRPPRLPRPRPRPWSRPRP	0.298
RRIRPRPPRLPRPRPRPYFNPRP	-0.619
RRIRGRPPRLPRPRPRPRPWPRP	0.77
RRIRMRPPRLPRPRPRPDGAPRP	2.17
RRIRARPPRLPRPRPRPAMSPRP	0.43
RRIRVRPPRLPRPRPRPGGKPRP	0.171
RRIRNRPPRLPRPRPRPHYFPRP	-0.0132
RRIRMRPPRLPRPRPRPISVPRP	0.103
RRIRMRPPRLPRPRPRPGHTPRP	0.488
RRIRKRPPRLPRPRPRPHSWPRP	0.0385
RRIRFRPPRLPRPRPRPMCAPRP	0.253
RRIRIRPPRLPRPRPRPWREPRP	0.158
RRIRHRPPRLPRPRPRPPSSPRP	-0.00863
RRIRFRPPRLPRPRPRPVVLPRP	0.0119
RRIRERPPRLPRPRPRPFWPPRP	0.0458
RRIRGRPPRLPRPRPRPCFEPRP	0.629

Sequence	shrunken log2 fold change
RRIRRRPPRLPRPRPRPFSSPRP	-0.0604
RRIRLRPPRLPRPRPRPIRGPRP	-0.0599
RRIRQRPPRLPRPRPRPCKCPRP	-0.000687
RRIRKRPPRLPRPRPRPPAHPRP	0.808
RRIRLRPPRLPRPRPRPNDEPRP	0.0316
RRIRYRPPRLPRPRPRPQFFPRP	-0.0644
RRIRERPPRLPRPRPRPHWMPRP	-0.157
RRIRARPPRLPRPRPRPFIYPRP	-0.264
RRIRHRPPRLPRPRPRPHNPPRP	-0.216
RRIRPRPPRLPRPRPRPISDPRP	-0.507
RRIRKRPPRLPRPRPRPDHCPRP	0.00904
RRIRNRPPRLPRPRPRPNQWPRP	-0.171
RRIRVRPPRLPRPRPRPDEIPRP	0.0183
RRIRCRPPRLPRPRPRPRDIPRP	-0.132
RRIRTRPPRLPRPRPRPDQCPRP	0.0333
RRIRNRPPRLPRPRPRPWQIPRP	-0.102
RRIRARPPRLPRPRPRPQRVPRP	-0.188
RRIRCRPPRLPRPRPRPKEQPRP	0.0429
RRIRCRPPRLPRPRPRPDYIPRP	0.0495
RRIRVRPPRLPRPRPRPYTMPRP	-0.49
RRIRRRPPRLPRPRPRPCLNPRP	-0.4
RRIRWRPPRLPRPRPRPEHKPRP	0.278
RRIRYRPPRLPRPRPRPLIVPRP	-0.895
RRIRSRPPRLPRPRPRPFWLPRP	0.26
RRIRQRPPRLPRPRPRPWMVPRP	-0.0803

Sequence	shrunken log2 fold change
RRIRVRPPRLPRPRPRPERTPRP	-0.111
RRIRQRPPRLPRPRPRPYMTPRP	-0.122
RRIRERPPRLPRPRPRPHSNPRP	-0.255
RRIRHRPPRLPRPRPRPDLAPRP	0.0081
RRIRPRPPRLPRPRPRPGIPPRP	-0.157
RRIRIRPPRLPRPRPRPAGTPRP	-0.108
RRIRIRPPRLPRPRPRPYPFPRP	-0.38
RRIRDRPPRLPRPRPRPSCYPRP	-0.302
RRIRIRPPRLPRPRPRPCWLPRP	-0.196
RRIRLRPPRLPRPRPRPHSTPRP	-0.149
RRIRLRPPRLPRPRPRPNNWPRP	-0.275
RRIRGRPPRLPRPRPRPLMIPRP	0.139
RRIRGRPPRLPRPRPRPESYPRP	0.0402
RRIRKRPPRLPRPRPRPMCDPRP	-0.0708
RRIRERPPRLPRPRPRPAHFPRP	0.0793
RRIRVRPPRLPRPRPRPTYCPRP	-0.327
RRIRQRPPRLPRPRPRPRAFPRP	0.317
RRIRYRPPRLPRPRPRPSFPPRP	-0.831
RRIRKRPPRLPRPRPRPCREPRP	0.368
RRIRRRPPRLPRPRPRPDATPRP	1.32
RRIRIRPPRLPRPRPRPFRPPRP	0.023
RRIRVRPPRLPRPRPRPDEPPRP	0.225
RRIRGRPPRLPRPRPRPVIVPRP	0.626
RRIRWRPPRLPRPRPRPCKFPRP	-0.24
RRIRERPPRLPRPRPRPWNDPRP	-0.342
